Assay [1] deals with HA of A/New Jersey/8/76 (H1N1) virus (influenza A virus). As to the kind of experiment: cell-based or functional assay.
The target in assay [2] is HA of ca A/Japan/57 (H2N2) virus (influenza A virus). Put plainly: cell-based or functional assay.
In assay [3] the target is HA of ca A/swine/Missouri/06 (H2N3) virus (influenza A virus). As to the kind of experiment: cell-based or functional assay.
Assay [4] has as its target HA of ca A/Vietnam/1203/04 (H5N1) virus (influenza A virus). As to the kind of experiment: cell-based or functional assay.
Assay [5] has as its target HA of ca A/Hong Kong/213/03 (H5N1) virus (influenza A virus). As to the kind of experiment: cell-based or functional assay.
The target of assay [6] is HA of ca A/mallard/Alberta/89/85 (H6N2) virus (influenza A virus). Put plainly: cell-based or functional assay.
Assay [7] concerns the target HA of ca A/teal/Hong Kong/W312/97 (H6N1) virus (influenza A virus). As to the kind of experiment: cell-based or functional assay.
In assay [8] the target is HA of ca A/chicken/Hong Kong/G9/97 (H9N2) virus (influenza A virus). Put plainly: cell-based or functional assay.
In assay [9] the target is HA of ca A/Netherlands/219/03 (H7N7) virus (influenza A virus). Put plainly: cell-based or functional assay.
Assay [10] concerns the target HA of ca A/Brit. Columbia/CN-6/04 (H7N3-LP) virus (influenza A virus). As to the kind of experiment: cell-based or functional assay.
The target of assay [11] is HA of ca A/Anhui/1/13 (H7N9) virus (influenza A virus). Put plainly: cell-based or functional assay.
The target in assay [12] is HA subtype H4 (A/duck/Czechoslovakia/56 (H4N6)) on HEK cells (influenza A virus, UniProt P19696 17-564). As to the kind of experiment: flow cytometry, HA-transfected HEK cells, 5 ug/ml antibody.
The target of assay [13] is HA subtype H10 (A/chicken/Germany/N49 (H10N7)) on HEK cells (influenza A virus, UniProt P12581 17-561). The assay is described as above.
For assay [14], the target named is HA subtype H12 (A/duck/Alberta/60/76 (H12N5)) on HEK cells (influenza A virus, UniProt P03446 17-564). The assay is described as above.
Assay [15] has as its target HA subtype H13 (A/gull/Maryland/704/77 (H13N6)) on HEK cells (influenza A virus, UniProt P13103 19-566). Described as above.
For assay [16], the target named is HA subtype H14 (A/mallard/Astrakhan/263/82 (H14N5)) on HEK cells (influenza A virus, UniProt P26136 18-568). The description is as above.
Sequence of HA subtype H14 (A/mallard/Astrakhan/263/82 (H14N5)) on HEK cells (P26136 18-568): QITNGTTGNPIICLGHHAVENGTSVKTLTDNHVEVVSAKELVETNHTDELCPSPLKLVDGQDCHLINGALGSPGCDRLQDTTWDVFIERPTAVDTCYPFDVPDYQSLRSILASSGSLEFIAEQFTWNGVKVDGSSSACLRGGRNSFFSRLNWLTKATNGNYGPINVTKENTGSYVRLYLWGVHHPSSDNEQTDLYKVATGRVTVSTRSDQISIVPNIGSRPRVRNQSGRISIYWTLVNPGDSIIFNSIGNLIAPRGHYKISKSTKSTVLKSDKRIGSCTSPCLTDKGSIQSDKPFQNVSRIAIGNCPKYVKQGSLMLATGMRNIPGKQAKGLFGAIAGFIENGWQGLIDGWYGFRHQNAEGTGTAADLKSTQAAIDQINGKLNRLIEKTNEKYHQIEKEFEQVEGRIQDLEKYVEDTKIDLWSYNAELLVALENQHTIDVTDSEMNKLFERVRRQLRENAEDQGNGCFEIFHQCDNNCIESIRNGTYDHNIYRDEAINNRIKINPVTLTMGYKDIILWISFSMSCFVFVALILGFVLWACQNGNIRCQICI

Sequence of HA subtype H12 (A/duck/Alberta/60/76 (H12N5)) on HEK cells (P03446 17-564): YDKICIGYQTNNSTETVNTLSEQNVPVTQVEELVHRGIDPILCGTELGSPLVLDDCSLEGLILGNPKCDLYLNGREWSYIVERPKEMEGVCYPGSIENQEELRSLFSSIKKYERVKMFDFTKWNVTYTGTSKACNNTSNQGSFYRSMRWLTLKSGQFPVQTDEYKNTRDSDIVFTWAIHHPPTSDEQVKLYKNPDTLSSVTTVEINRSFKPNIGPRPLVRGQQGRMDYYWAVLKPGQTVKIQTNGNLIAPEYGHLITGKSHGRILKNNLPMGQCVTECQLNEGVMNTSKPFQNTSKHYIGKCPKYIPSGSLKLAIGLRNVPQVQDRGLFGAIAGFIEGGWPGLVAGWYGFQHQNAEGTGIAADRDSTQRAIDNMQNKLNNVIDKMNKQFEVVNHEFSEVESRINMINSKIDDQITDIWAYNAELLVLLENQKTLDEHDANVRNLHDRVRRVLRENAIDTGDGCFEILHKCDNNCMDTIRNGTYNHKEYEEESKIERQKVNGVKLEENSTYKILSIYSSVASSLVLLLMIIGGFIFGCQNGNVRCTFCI
Sequence of HA subtype H10 (A/chicken/Germany/N49 (H10N7)) on HEK cells (P12581 17-561): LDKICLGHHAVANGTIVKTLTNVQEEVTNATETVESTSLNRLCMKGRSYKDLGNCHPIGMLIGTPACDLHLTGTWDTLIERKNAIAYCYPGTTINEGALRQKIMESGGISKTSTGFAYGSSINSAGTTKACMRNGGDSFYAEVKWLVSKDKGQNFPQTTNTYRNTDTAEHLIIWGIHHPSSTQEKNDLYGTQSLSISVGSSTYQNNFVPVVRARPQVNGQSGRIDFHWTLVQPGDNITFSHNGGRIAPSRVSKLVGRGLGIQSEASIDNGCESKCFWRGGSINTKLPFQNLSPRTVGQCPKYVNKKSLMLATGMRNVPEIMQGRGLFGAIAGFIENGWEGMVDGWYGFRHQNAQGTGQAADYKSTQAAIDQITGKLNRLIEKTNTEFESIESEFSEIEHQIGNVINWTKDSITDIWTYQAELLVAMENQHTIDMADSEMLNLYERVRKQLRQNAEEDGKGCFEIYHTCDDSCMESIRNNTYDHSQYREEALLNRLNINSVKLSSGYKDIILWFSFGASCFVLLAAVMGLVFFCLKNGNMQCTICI
Sequence of HA subtype H4 (A/duck/Czechoslovakia/56 (H4N6)) on HEK cells (P19696 17-564): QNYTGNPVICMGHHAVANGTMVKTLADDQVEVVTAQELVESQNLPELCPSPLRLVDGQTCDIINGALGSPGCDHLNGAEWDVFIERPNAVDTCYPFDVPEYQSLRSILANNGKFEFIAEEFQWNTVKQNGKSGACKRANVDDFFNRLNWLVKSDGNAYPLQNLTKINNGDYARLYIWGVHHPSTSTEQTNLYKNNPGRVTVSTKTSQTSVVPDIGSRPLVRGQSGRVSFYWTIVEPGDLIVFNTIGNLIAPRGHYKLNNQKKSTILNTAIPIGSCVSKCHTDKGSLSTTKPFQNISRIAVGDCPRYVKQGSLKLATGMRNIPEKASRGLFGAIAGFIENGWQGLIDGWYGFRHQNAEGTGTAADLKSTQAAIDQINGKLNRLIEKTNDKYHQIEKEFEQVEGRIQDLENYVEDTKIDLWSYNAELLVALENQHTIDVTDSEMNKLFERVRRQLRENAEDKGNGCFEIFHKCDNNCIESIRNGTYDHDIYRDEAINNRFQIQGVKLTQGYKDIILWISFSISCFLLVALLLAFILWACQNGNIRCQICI
Sequence of HA subtype H13 (A/gull/Maryland/704/77 (H13N6)) on HEK cells (P13103 19-566): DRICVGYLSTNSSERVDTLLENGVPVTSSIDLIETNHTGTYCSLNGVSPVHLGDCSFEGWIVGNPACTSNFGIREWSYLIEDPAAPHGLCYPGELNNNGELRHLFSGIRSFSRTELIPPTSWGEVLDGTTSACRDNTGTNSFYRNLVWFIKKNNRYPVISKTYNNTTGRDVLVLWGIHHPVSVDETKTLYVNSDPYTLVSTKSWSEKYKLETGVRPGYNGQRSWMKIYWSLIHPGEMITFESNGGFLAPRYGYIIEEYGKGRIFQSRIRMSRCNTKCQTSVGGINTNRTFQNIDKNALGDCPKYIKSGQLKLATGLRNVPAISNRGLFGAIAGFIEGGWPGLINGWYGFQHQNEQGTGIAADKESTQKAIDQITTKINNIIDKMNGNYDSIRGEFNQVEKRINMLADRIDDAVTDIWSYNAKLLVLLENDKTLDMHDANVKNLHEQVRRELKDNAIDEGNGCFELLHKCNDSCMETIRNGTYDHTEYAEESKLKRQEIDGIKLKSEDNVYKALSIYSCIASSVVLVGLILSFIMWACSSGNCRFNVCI

B1: Antibody 11 (antibody, V domains shown)
VH: QVQLQQSGPGLVKPSQTLSLTCAISGDSVSSYNAVWNWIRQSPSRGLEWLGRTYYRSGWYNDYAESVKSRITINPDTSKNQFSLQLNSVTPEDTAVYYCARSGHITVFGVNVDAFDMWGQGTMVTVSS
VL: DIQMTQSPSSLSASVGDRVTITCRTSQSLSSYTHWYQQKPGKAPKLLIYAASSRLSGVPSRFSGSGSGTDFTLTISSLQPEDFATYYCQQSRTFGQGTKVEIK
With B1, the “Neutralization IC50, H1-NJ76” value in [1] stood at 0.13 µg/mL. In [2], the “Neutralization IC50, H2-JP57” value turned out to be 0.31 µg/mL. Moreover, in [3], the “Neutralization IC50, H2-MO06” value was found to be 0.6 µg/mL. For the same molecule, in assay [4], the “Neutralization IC50, H5-VM04” value worked out at 0.57 µg/mL. Also, the “Neutralization IC50, H5-HK03” value in [5] was found to be 0.21 µg/mL. Also, the “Neutralization IC50, H6-AB85” value in [6] stood at 0.24 µg/mL. In assay [7], the “Neutralization IC50, H6-HK97” value was 0.4 µg/mL. Further, the “Neutralization IC50, H9-HK97” value in [8] was determined as 0.36 µg/mL. The “Neutralization IC50, H7-NLD03” value in assay [9] came out at 0.94 µg/mL. Also, in assay [10], the “Neutralization IC50, H7-BC04” value was determined as 0.71 µg/mL.

B2: Antibody 15 (antibody, V domains shown)
VH: QVQLQQSGPGLVKPSQTLSLTCAISGDSVSSNNAVWNWIRQSPSRGLEWLGRTYYRSKWYNDYAESVKSRITINPDTSKNQFSLQLNSVTPEDTAVYYCARSGHITVFGVNVDAFDMWGQGTTVTVSS
VL: DIQMTQSPSSLSASVGDRVTITCRTSQSLSSYTHWYQQKPGKAPKLLIYAASSRGSGVPSRFSGSGSGTDFTLTISSLQPEDFATYYCQQSRTFGQGTKVEIK
Take B2: the “Neutralization IC50, H1-NJ76” value in [1] stood at 0.25 µg/mL. For the same molecule, the “Neutralization IC50, H2-JP57” value in [2] amounted to 0.33 µg/mL. Moreover, in [3], the “Neutralization IC50, H2-MO06” value stood at 0.83 µg/mL. In addition, the “Neutralization IC50, H5-VM04” value in assay [4] turned out to be 0.28 µg/mL. Moreover, in assay [5], the “Neutralization IC50, H5-HK03” value is 0.05 µg/mL. Also, in assay [6], the “Neutralization IC50, H6-AB85” value was 0.19 µg/mL. In assay [7], the “Neutralization IC50, H6-HK97” value worked out at 0.33 µg/mL. Further, in [8], the “Neutralization IC50, H9-HK97” value came out at 0.35 µg/mL. In addition, in assay [9], the “Neutralization IC50, H7-NLD03” value came to 1.3 µg/mL. For the same molecule, the “Neutralization IC50, H7-BC04” value in [10] was found to be 1.25 µg/mL.

B3: Antibody 14 (antibody, V domains shown)
VH: QVQLQQSGPGLVKPSQTLSLTCAISGDSVSSNNAVWNWIRQSPSRGLEWLGRTYYRSKWYNDYAESVKSRITINPDTSKNQFSLQLNSVTPEDTAVYYCARSGHITVFGVNVDAFDMWGQGTTVTVSS
VL: DIQMTQSPSSLSASVGDRVTITCRTSQSLSSYTHWYQQKPGKAPKLLIYAASSRLSGVPSRFSGSGSGTDFTLTISSLQPEDFATYYCQQSRTFGQGTKVEIK
Consider B3, for which the “Neutralization IC50, H1-NJ76” value in assay [1] came to 0.11 µg/mL. Also, the “Neutralization IC50, H2-JP57” value in [2] is 0.67 µg/mL. Besides, the “Neutralization IC50, H2-MO06” value in [3] was determined as 0.65 µg/mL. Further, the “Neutralization IC50, H5-VM04” value in assay [4] was found to be 0.33 µg/mL. For the same molecule, the “Neutralization IC50, H5-HK03” value in assay [5] stood at 0.21 µg/mL. The “Neutralization IC50, H6-AB85” value in [6] was 0.26 µg/mL. The “Neutralization IC50, H6-HK97” value in assay [7] was found to be 0.26 µg/mL. Besides, the “Neutralization IC50, H9-HK97” value in assay [8] amounted to 0.44 µg/mL. In addition, the “Neutralization IC50, H7-NLD03” value in [9] stood at 1.16 µg/mL. The “Neutralization IC50, H7-BC04” value in assay [10] was 0.86 µg/mL. In addition, the “Neutralization IC50, H7-ANU13” value in assay [11] worked out at 2.12 µg/mL.

B4: Antibody 13 (antibody, V domains shown)
VH: QVQLQQSGPGLVKPSQTLSLTCAISGDSVSSYNAVWNWIRQSPSRGLEWLGRTYYRSGWYNDYAESVKSRITINPDTSKNQFSLQLNSVTPEDTAVYYCARSGHITVFGVNVDAFDMWGQGTMVTVSS
VL: DIQMTQSPSSLSASVGDRVTITCRTSQSLSSYDHWYQQKPGKAPKLLIYAASSRLSGVPSRFSGSGSGTDFTLTISSLQPEDFATYYCQQSRTFGQGTKVEIK
Consider B4, for which the “Neutralization IC50, H1-NJ76” value in assay [1] worked out at 0.12 µg/mL. Also, the “Neutralization IC50, H2-JP57” value in assay [2] came out at 0.47 µg/mL. In addition, in assay [3], the “Neutralization IC50, H2-MO06” value amounted to 0.57 µg/mL. For the same molecule, in [4], the “Neutralization IC50, H5-VM04” value turned out to be 0.56 µg/mL. Besides, the “Neutralization IC50, H5-HK03” value in assay [5] was 0.17 µg/mL. Besides, the “Neutralization IC50, H6-AB85” value in assay [6] amounted to 0.29 µg/mL. Further, in assay [7], the “Neutralization IC50, H6-HK97” value turned out to be 0.55 µg/mL. Also, the “Neutralization IC50, H9-HK97” value in assay [8] was determined as 0.29 µg/mL. Besides, in assay [9], the “Neutralization IC50, H7-NLD03” value came to 2.45 µg/mL. The “Neutralization IC50, H7-BC04” value in assay [10] worked out at 0.96 µg/mL.

B5: Antibody 12 (antibody, V domains shown)
VH: QVQLQQSGPGLVKPSQTLSLTCAISGDSVSSYNAVWNWIRQSPSRGLEWLGRTYYRSGWYNDYAESVKSRITINPDTSKNQFSLQLNSVTPEDTAVYYCARSGHITVFGVNVDAFDMWGQGTMVTVSS
VL: DIQMTQSPSSLSASVGDRVTITCRTSQSLSSYTHWYQQKPGKAPKLLIYAASSRGSGVPSRFSGSGSGTDFTLTISSLQPEDFATYYCQQSRTFGQGTKVEIK
For B5, the “Neutralization IC50, H1-NJ76” value in [1] is 0.12 µg/mL. The “Neutralization IC50, H2-JP57” value in assay [2] is 0.35 µg/mL. Further, in assay [3], the “Neutralization IC50, H2-MO06” value is 0.53 µg/mL. Further, in assay [4], the “Neutralization IC50, H5-VM04” value is 0.31 µg/mL. Further, in assay [5], the “Neutralization IC50, H5-HK03” value was 0.17 µg/mL. Moreover, the “Neutralization IC50, H6-AB85” value in assay [6] turned out to be 0.32 µg/mL. The “Neutralization IC50, H6-HK97” value in assay [7] was determined as 0.45 µg/mL. Besides, in assay [8], the “Neutralization IC50, H9-HK97” value worked out at 0.31 µg/mL. Moreover, in assay [9], the “Neutralization IC50, H7-NLD03” value was found to be 0.83 µg/mL. Further, the “Neutralization IC50, H7-BC04” value in assay [10] came to 0.78 µg/mL. In [11], the “Neutralization IC50, H7-ANU13” value came out at 2.56 µg/mL. The binding result in assay [12], in [13], in assay [14], in assay [15] and in assay [16] was “binds” throughout.

The values are drawn from patent US20200109188A1 (AstraZeneca / MedImmune, published 2020).
